From patent US7919104B2, “Functional epitopes of Streptococcus pneumoniae PsaA antigen and uses thereof” (priority 2005, dated 2011)
Values joined by “and” are separate entries in the source; they are usually repeats but may differ in a detail not shown here. Identical values can stand only once.

Key:
Format in all cases: cell-based, human
Detroit 562 cells [1] = experiment: Adherence of rPsaA- or peptide-coated fluospheres (beads) to Detroit 562 cells; conditions: for mean adherence of coated fluospheres (mean FU±SE): 3,100±500 fluospheres per well, 2 hour incubation; for mean adherence signal (n=6): 2600 fluospheres/well; for mean adherence (% CV): batch 6, dilution 1:100, 2,600 fluospheres
Method: (§1) Carboxylate-modified fluorospheres (Molecular Probes™, […]) coated with either recombinant PsaA (rPsaA) or PsaA synthetic peptide (P4) were evaluated for their adherence to Detroit 562 NP cells. Four different batches of PsaA beads were generated by varying the concentration of the protein solution used to coat the beads (0.9 mg/ml, 0.53 mg/ml, 5.3 μg/ml and 0.53 μg/ml). P4 and Glycine control beads were generated by using a peptide solution (0.9 mg/ml). Protein concentrations were confirmed by the Bradford test (Sigma). PsaA and peptide beads were compared at similar inocula (1640±210 beads per well) in adherence and adherence competition assays (measured as mean fluorescent units (FU±SE)).
Recombinant PsaA protein or synthetic peptides were covalently bound to carboxylate-modified FluoSpheres (Molecular Probes, Eugene, Oreg.) (505/515 nm range, yellow, 1 μm in diameter). […] The 2% fluosphere stock was vortexed for 2 minutes at full speed. A 250-μl aliquot was sonicated for 5 minutes to break clumps. The sonicated fluospheres were washed 3 times by centrifugation at 10,000 rpm for 10 minutes in 250 μl MES buffer, pH 6.0 (Molecular Probes). The negative charge in the carboxylate-modified fluospheres was activated by adding 50 μl of EDAC solution (100 mg/ml, Molecular Probes) to the washed fluospheres resuspended in 200 μl MES. The fluospheres were incubated for 30 minutes RT with gentle rotation. A 250-μl volume of rPsaA (1 mg/ml) or peptide (2 mg/ml) resuspended in MES buffer was added to each fluosphere pellet. Suboptimal concentrations of rPsaA (900, 530, 5.3 and 0.53 μg/ml) were also used to generate partially coated fluospheres. Peptides were dissolved as 1 mg in 50 μl of 10% acetic acid followed by addition of 450 μl of MES buffer, pH 6.0. The 500-μl fluosphere suspension was incubated in the dark over night at room temperature with horizontal rotation (150 rpm). The remaining reactive sites were blocked by addition of a 50-μl volume of 1 M solution of glycine, followed by a-30-minute incubation at room temperature with horizontal rotation. The fluosphere suspension was then washed with 500 μl PBS, 50 mM, pH 7.2-7.4 three times by centrifugation at 10,000 rpm for 10 minutes. The first supernatant of the first wash was saved for protein determinations using the microtiter microdilution method of Bradford (Bio-Rad Laboratories, Calif.). The labeled fluosphere pellet was resuspended in 500 μl of PBS, 50 mM, pH 7.2-7.4. Labeled fluospheres were stored in the dark in 100-μl aliquots at 4° C. for up to 4 months. The peptides were stored in powder form at 4° C. under Dryerite desiccant. The resuspended peptides were stored at 4° C. for 6 weeks and for long term storage at −70° C. Fluospheres were counted by limiting dilution using a fluorometer (FLX-600, BioTek) with 485/520 nm excitation/emission wavelength and comparison to a calibration curve previously generated against hemacytometer counts.
Confluent monolayers of Detroit 562 cells grown in 96-well tissue culture plates for 6 days were washed once with 130 μl/well of PBS buffer+0.5% BSA (Sigma cat #A2153, Fraction V purified by alcohol precipitation). The entire outer perimeter of the microtiter plate was not used for adherence assays due to edge effect and lack of confluent growth in these wells. An 80-μl volume per well of PBS buffer+1% BSA and 20 μl per well of diluted fluosphere suspension (to yield ˜3100±500 fluospheres in a 20-μl volume) were added to the washed monolayers. The diluted fluosphere suspension was sonicated for 3 minutes prior to addition to the center of the wells. […] The sides of the plates were then tapped gently to mix. […] Following incubation, plates were washed 5 times with 130 μL/well of PBS+0.5% BSA. The liquid was removed after each wash with a multi-channel aspirator (Costar) and moderate vacuum. The plate was allowed to dry before reading in the fluorometer (485/520 nm). […]

Detroit 562 cells [2] = experiment: Competitive inhibition of adherence of rPsaA-coated fluospheres to Detroit 562 cells; conditions: for percent reduction in adherence of rPsaA-coated beads: rPsaA-coated beads 0.9 mg/ml batch, ~1,640 beads per well
Method: as §1
(§2) Homologous competitive inhibitions with 0.5 to 10 μg per well of rPsaA protein or 5 to 20 μg per well of each peptide were performed to determine the specificity of the adherence for rPsaA-coated fluospheres or for each of the three peptide-coated fluospheres. Heterologous competitive inhibitions with each peptide (10 μg per well) were performed to determine which peptide blocked the adherence of whole PsaA-coated fluospheres to the Detroit 562 cells. Absorption of PsaA-specific antibodies was performed by incubation (2 hours at ambient room temperature with rotation, 100 rpm) of 500 μl (1:8 dilution) of the serum 7051 with nitrocellulose strips (2.5×0.5 cm), previously impregnated with rPsaA protein (1.8 mg/ml) and allowed to dry at 37° C. for 1 hour. Strips were replaced every 2 hours for a total of 3 changes. All antibody absorptions were performed in PBS (10 mM, pH 7.2) supplemented with 1% (weight/volume) BSA as a non-specific blocker. Immunoglobulin G (IgG) concentrations (μg/ml) were measured as previously described (Tharpe, Romero-Steiner) after each absorption step to monitor the decline of anti-PsaA antibodies.

Detroit 562 cells [3] = experiment: Homologous competitive inhibition of adherence of rPsaA- or peptide-coated fluospheres to Detroit 562 cells; conditions: for percent reduction in adherence of P4-coated beads: ~1,640 beads per well
Method: as §1, §2

[4] = homologous competitor 5.0 μg/well
[5] = homologous competitor 10 μg/well

Q: With “LFVESSVKRRPMKTVSQDTNIPIYAQIF [P4, non-branched synthetic peptide, PsaA amino acid residues 251 to 278 with DD changed to KR]” as the molecule, how does the “mean adherence of coated fluospheres (mean FU±SE)” value (Detroit 562 cells [1]) read?
A: 20,317±448 FU

Q: What about the “adherence of P4-coated beads (FU±SE)” value (Detroit 562 cells [1]; beads coated with 0.9 mg/ml peptide solution, 1640±210 beads per well) of the same molecule?
A: 19,340 FU

Q: And the “inhibition of the binding of PsaA protein to Detroit 562 cells” value (Detroit 562 cells [2])?
A: ≥ 95%

Q: What about the “percent reduction in adherence of rPsaA-coated beads” value (Detroit 562 cells [2]; competitor 5.0 μg/well) of the same molecule?
A: 23% and 18.5%

Q: And the “percent reduction in adherence of rPsaA-coated beads” value (Detroit 562 cells [2]; competitor 10 μg/well)?
A: 57.6%

Q: And the “percent reduction in adherence of rPsaA-coated beads” value (Detroit 562 cells [2]; competitor 20 μg/well)?
A: 95% and 95.9%

Q: And the “inhibition of rPsaA-fluosphere adherence, heterologous competition” value (Detroit 562 cells [2]; peptide 10 μg/well)?
A: 57.6%

Q: And the “inhibition of rPsaA-fluosphere adherence, heterologous competition” value (Detroit 562 cells [2]; peptide 20 μg/well (6.2×10^−2 mM))?
A: 95.9%

Q: What about the “percent reduction in adherence of P4-coated beads” value (Detroit 562 cells [3]; competitor 5.0 μg/well) of the same molecule?
A: 89% and 89.4%

Q: What about the “percent reduction in adherence of P4-coated beads” value (Detroit 562 cells [3]; competitor 10 μg/well) of the same molecule?
A: 88% and 87.6%

Q: What about the “percent reduction in adherence of P4-coated beads” value (Detroit 562 cells [3]; competitor 20 μg/well) of the same molecule?
A: 89% and 88.9%

Q: What about the “percent reduction in adherence of homologous coated fluospheres” value (Detroit 562 cells [3]; [4]) of the same molecule?
A: 89.4%

Q: What about the “percent reduction in adherence of homologous coated fluospheres” value (Detroit 562 cells [3]; [5]) of the same molecule?
A: 87.6%

Q: What about the “percent reduction in adherence of homologous coated fluospheres” value (Detroit 562 cells [3]; homologous competitor 20 μg/well) of the same molecule?
A: 88.9%

B1: rPsaA: purified recombinant pneumococcal surface adhesin A, non-lipidated, donated by Aventis-Pasteur (protein)
chain: CASGKKDTTSGQKLKVVATNSIIADITKNIAGDKIDLHSIVPIGQDPHEYEPLPEDVKKTSEADLIFYNGINLETGGNAWFTKLVENAKKTENKDYFAVSDGVDVIYLEGQNEKGKEDPHAWLNLENGIIFAKNIAKQLSAKDPNNKEFYEKNLKEYTDKLDKLDKESKDKFNKIPAEKKLIVTSEGAFKYFSKAYGVPSAYIWEINTEEEGTPEQIKTLVEKLRQTKVPSLFVESSVDDRPMKTVSQDTNIPIYAQIFTDSIAEQGKEGDSYYSMMKYNLDKIAEGLAK
Q: B1 was tested. Which “mean adherence signal (n=6)” value (Detroit 562 cells [1]; 20 min incubation) did it give?
A: 2,315 FU

Q: And the “mean adherence signal (n=6)” value (Detroit 562 cells [1]; 140 min incubation (plateau starts))?
A: 16,597 FU

Q: And the “mean adherence signal (n=6)” value (Detroit 562 cells [1]; 180 min incubation)?
A: 17,498 FU

Q: And the “mean adherence of coated fluospheres (mean FU±SE)” value (Detroit 562 cells [1])?
A: 44,195±2,648 FU

Q: And the “mean adherence (% CV)” value (Detroit 562 cells [1]; day 1 after labeling)?
A: 30,105 FU

Q: And the “mean adherence (% CV)” value (Detroit 562 cells [1]; day 60 after labeling)?
A: 30,595 FU

Q: What about the “adherence of PsaA beads (FU±SE)” value (Detroit 562 cells [1]; beads coated with 0.53 μg/ml rPsaA, 1640±210 beads per well) of the same molecule?
A: 5,892 FU

Q: And the “adherence of PsaA beads (FU±SE)” value (Detroit 562 cells [1]; beads coated with 5.3 μg/ml rPsaA, 1640±210 beads per well)?
A: 12,788 FU

Q: What about the “adherence of PsaA beads (FU±SE)” value (Detroit 562 cells [1]; beads coated with 0.53 mg/ml rPsaA, 1640±210 beads per well) of the same molecule?
A: 16,748 FU

Q: What about the “adherence of PsaA beads (FU±SE)” value (Detroit 562 cells [1]; beads coated with 0.9 mg/ml rPsaA, 1640±210 beads per well) of the same molecule?
A: 47,875 FU

Q: What about the “inhibition of the adherence of PsaA-coated fluospheres, cold chase” value (Detroit 562 cells [2]; non-fluorescent spheres coated with PsaA protein) of the same molecule?
A: up to 31%

Q: What about the “reduction of adherence of rPsaA fluospheres by whole recombinant protein” value (Detroit 562 cells [3]; 0.5 to 10 μg/well) of the same molecule?
A: unable to significantly reduce

Q: What about the “reduction of adherence of rPsaA-coated fluospheres” value (Detroit 562 cells [3]; additional concentrations 0.125 to 10.0 μg/well vs 3 μg/well) of the same molecule?
A: did not result in any further reduction

Q: And the “percent reduction in adherence of homologous coated fluospheres” value (Detroit 562 cells [3]; homologous competitor 0.5 μg/well)?
A: −5.2%

Q: And the “percent reduction in adherence of homologous coated fluospheres” value (Detroit 562 cells [3]; homologous competitor 1.0 μg/well)?
A: 9.8%

Q: What about the “percent reduction in adherence of homologous coated fluospheres” value (Detroit 562 cells [3]; homologous competitor 2.0 μg/well) of the same molecule?
A: 17.0%

Q: What about the “percent reduction in adherence of homologous coated fluospheres” value (Detroit 562 cells [3]; [4]) of the same molecule?
A: 13.7%

Q: And the “percent reduction in adherence of homologous coated fluospheres” value (Detroit 562 cells [3]; [5])?
A: 11.4%
